Article doi:10.1101/2020.10.02.324624

Target: AmvR (Acinetobacter baumannii ATCC17978)
Assay: SEC

AmvR (natural protein) gave a stoichiometry N of 2.
